Data taken from patent publication US20240026407A1, “MODIFICATION OF SAPONINS” (GLAXOSMITHKLINE BIOLOGICALS SA, priority 2020, published 2024).

Assays:
[1] = Experiment 4-2: screening of glucosidases for deglycosylation with purified QS-18 (1 mg/ml) at pH 6 and 30 deg C; type: biochemical, Quillaja saponaria; settings: pH 6, 30 degC, 18 hrs, clarified lysate, LCMS/MS
Experimental: Lysates were prepared in an identical manner to Experiment 4-1 above, except the lysis buffer was prepared in 100 mM potassium phosphate buffer pH 6. QS-18 solution was prepared by dissolving QS-18 in 100 mM potassium phosphate buffer pH 6 (2 mg/mL).
12 uL clarified lysate was transferred into fresh 96 well PCR plates. 12 uL QS-18 solution was added (1 mg/ml final concentration), plates sealed and incubated overnight (30° C.) for 18 hrs. After quenching with 25 uL MeCN and shaking for 10 mins (RT), samples were analysed using the LC-MS/MS protocol described in Experiment 4-1 and enzyme activity determined in an analogous manner.

[2] = Experiment 4-1: screening of glucosidases for deglycosylation with purified QS-18 (0.04 mg/ml) at pH 7.5 and room temperature; type: biochemical, Quillaja saponaria; settings: pH 7.5, room temperature, 20 h, clarified E. coli lysate, QS-18 2150 to QS-21 1988 by LCMS/MS
Experimental: Nucleotide sequences were sub-cloned into pET24b+ for expression. 10 uL of E. coli cells (One Shot® BL21(DE3) chemically competent E. coli) were transferred to each well of a 96 well PCR plate (prechilled on ice). 10 uL autoclaved water was added to the DNA, resuspended by pipetting, and 1 uL of plasmid DNA (15-30 ng) was transferred to the competent cells. Immediately after addition, the resulting mixture was mixed by pipetting. Cells were heat shocked by placing the plate in a thermal cycler at 42° C. for 30 seconds then transferred directly to an ice bath for 2 min. 100 uL sterile Lysogeny Broth (LB) medium was added to each well containing transformed cells. The content of each plate was transferred into a 96-deep well plate pre-aliquoted with 400 uL LB and the plate was incubated at 37° C. with shaking and 85% humidity for 1 hour. After outgrowth, 500 uL of sterile LB containing 100 ug/mL kanamycin was added to the plates containing cells and plates incubated at 37° C. with shaking overnight (18 hours) with humidity control (85%).
1000 mLs of Overnight Express Media was supplemented with 1 mL kanamycin 50 mg/mL and 20 mL of 50% v/v glycerol added (50 ug/mL kanamycin final and 1% glycerol). 96-Well Assay Block 2 mL plates were aliquoted with 380 uL of media per well. Pre-inoculum (20 uL) from transformation plates was added. The plates were sealed appropriately and incubated at 37° C. at 300 with shaking for 2 h. After 2 h the temperature was lowered to 20° C. and incubation continued for 20 h.
The liquid cultures were centrifuged for 10 minutes at 4° C. The supernatant was discarded, plates blotted on an absorbent material to remove residue and the plates frozen at −80° C.
Lysis buffer was prepared according to the following protocol: • 1. Polymyxin B sulphate (0.5 mg/mL) was suspended in 100 mM potassium phosphate pH 7.5 • 2. The mixture was sonicated until polymyxin B sulphate had dissolved • 3. Lysozyme (1 mg/mL) and benzonase (0.1 uL/mL lysis buffer) were added
2 copies of each cell pellet plate were removed from −80 degC freezer and allowed to thaw. 200 uL of lysis buffer was added to each well of one copy of the cell pellet plates. Plates were shaken at room temperature for 10 mins. 190 uL of cell pellet/lysis buffer was transferred to a corresponding fresh cell pellet plate. These plates were incubated at room temperature with shaking for 2 hours. Lysate was clarified by centrifugation (10 min, 4 degC).
QS-18 was obtained by analogous methods to Example 3, collecting a QS-18 containing phenyl fraction following phenyl treatment (presence of m/z corresponding to key components was confirmed by MS and the phenyl fraction then used without further treatment). QS-18 solution was prepared by diluting aqueous QS-18 (ca 1 mg/mL) with 100 mM potassium phosphate pH 7.5 to 0.2 mg/ml. 40 uL clarified lysate was transferred into fresh 96 well PCR plates. 10 uL QS-18 solution added to each well of lysate to a final concentration of 0.04 mg/ml. Incubated at room temperature with shaking for 20 h. Quenched with 50 uL MeCN and shaken at room temperature for 10 mins. Samples were analysed by LC-MS/MS using a Waters Acquity H class coupled to a Waters Xevo Tandem Quadrupole (TQD) Mass Spectrometer.
Enzyme activity was calculated as: […]
Candidate enzymes with % conversion >0.72%, i.e. >3 S.D. above negative control, were considered to be positive hits and are listed below in Table 7. Sample results are shown in FIG. 10 for a QS-21 standard, FIG. 11 for negative control and FIG. 12 for treatment with the glucosidase of SEQ ID No. 262.

B1: 35 (protein, listed as Verrucomicrobia bacterium)
chain: MSEPDVENRINGLLKQMSLEEKTSLLHGNSKFNTAGIKRLGIPRLHLSDGPHGVRRETEEHSWGPVGWEDDYVTYLPTGSALASTWNPALGRLFGETLGAEARHRNKDVILGPGINIVRTPVCGRNFEYFGEDPYHVGKMAAEVVRGIQNNDVAACVKHYALNNQEWNRGWVNAIVDERTLREIYLPAFEETVRAGALTFMGAYNRFRGQWCCENKYLVNDILKGEWGFDGVYLSDWGGVHSTRDSALNGLDLEMGTSDNYDEFFFARPLREAVEGGEIPESVVDDKVRRILRVMARIGALDPATRKTGARNTAAHQKAVRAIADEAMVLLKNDGVLPLDIHKTLKLAVIGENADKKHADQGGSSAIRALYEITPLEGLKRRGGDMVKITYVQGYRDTGDAAAFEPIGEPYVQTVDPKAGVRCWKVEYFNNRDLHMPPVTVRYEKSVDFDWQERSPAPNVSEDNFSARMTAEIKPTASGTHHIGLTSDDGSRLKIDGKVVIDHWGDHGEEQKDARVELVAGQTYRFEVEYYDSGKGAMLKLGWVTPDSSAADPEVVFAAALEAAREADAVLVFAGQNHRYDTEGVDRRDIRLHGRQNDLIEAVAAANPRTAVFIISGSAVEMPWIDKVPCVVQAWYAGMEVGNAAAGIVFGDVNPSGKLPITFPKRLEDVPAHSIGQYNDQDCEYREGLLVGYRHFDTRNAEPLFPFGHGLSYTKFTYGNLKVDPATLEVRVSVKNTGARKGKEVVQLYVHDVQSRLPRPVKELKGFEKVELAPGETKEVAFRLDERALAFYDADANRWVVEPGDFDILVGSSSRDIRLKGRLAYAGRKKGPL
Expt 4-2 % conv [1]: 0.4%
Expt 4-1 % conv [2]: 1.2%

B2: 312 (protein, listed as Thermotoga neapolitana)
chain: MEKVNEILSQLTLEEKVKLVVGVGLPGLFGNPHSRVAGAAGETHPVPRVGLPAFVLADGPAGLRINPTRENDENTYYTTAFPVEIMLASTWNRELLEEVGKAMGEEVREYGVDVLLAPAMNIHRNPLCGRNFEYYSEDPVLSGEMASSFVKGVQSQGVGACIKHFVANNQETNRMVVDTIVSERALREIYLRGFEIAVKKSKPWSVMSAYNKLNGKYCSQNEWLLKKVLREEWGFEGFVMSDWYAGDNPVEQLKAGNDLIMPGKAYQVNTERRDEIEEIMEALKEGKLSEEVLDECVRNILKVLVNAPSFKNYRYSNKPDLEKHAKVAYEAGAEGVVLLRNEEALPLSENSKIALFGTGQIETIKGGTGSGDTHPRYAISILEGIKERGLNFDEELAKTYEDYIKKMRETEEYKPRRDSWGTIIKPKLPENFLSEKEIHKLAKKNDVAVIVISRISGEGYDRKPVKGDFYLSDDETDLIKTVSREFHEQGKKVIVLLNIGSPVEVVSWRDLVDGILLVWQAGQETGRIVADVLTGRINPSGKLPTTFPRDYSDVPSWTFPGEPKDNPQKVVYEEDIYVGYRYYDTFGVEPAYEFGYGLSYTTFEYSDLNVSFDGETLRVQYRIENTGGRAGKEVSQVYIKAPKGKIDKPFQELKAFHKTRLLNPGESEEVVLEIPVRDLASFNGEEWVVEAGEYEVRVGASSRNIKLKGTFSVGEERRFKP
Expt 4-2 % conv [1]: 0.4%
Expt 4-1 % conv [2]: 1.6%

B3: 370 (protein, listed as Rhizoctonia solani)
chain: MAPRPFKPLDVEDVISKLSLNEKTRLLAGIDNWHTYPVPRLGVPSLRFTDGPNGARGTKFFEGVPAACFPAATGLGSSWDPEFIQKVGQAIGRDCKDKGCHVLLGPTINIQRSPLGGRGFESYSEDPLLSGTLARAFIKGVQSEGVSATIKHYVTNDSEFERMSMSSELSTRALREIYLRPFELACRDPETAPWAVMTAYNRVNGLHASENKYLLDSVLRKQWGWEGMIMSDWYGTYSADASIKAGLDLEMPGPPTWRADALQRCVVAQKIRVPEIDARVREVLKLINRVAVSGIPENADETGEPKPETIDLLRQAAAHANVLLKNSESLLPISAKDVASIAVIGPNADSPVFSGGGSANLRPYKHTTALEGIAAALQDAGNKVEVQHTIGAHAHKEAPLLGVKHLKTKAGEPGYDIEWFNEDPVQNPDAKRVHYTHGTTSFAFFNDNLPGDDVLHQECWATMTAIFTPEVTGKYEFGAAATGLVDVYVDGKKIIDNSSNPVPGHVFFMTGTVEVLNTVELTAGKPAEIKLQFASPVAARTKGFTQIGAGSLSLEGRGGCRWGGGRTFEDDQGIKEAVDLAKKVDKVVLVVGLNNDWESEGYDRDNMELPRATNRLVSAVLEVNKNTAVVIISGTPVAMPWAESASTIVQSFYSGGEAGNGLADVLFGKVNPSSRLPLTFPVRDEDTPSHLNFPGQNGKVLYAEGVFVGYRHYLTYKKKVLFPFGYGLSYTQFEHSDLKLSGEIGKDSTVKVSVTVKNTGKVAGRDVVQIYVRDLVSRLDRPVKELKGFAKSSLLEPGKSETVTITLDKYAFGYFDDWAGEGRDGEGLWVAEAGDFEIVAASTSEDVGISAGISLKQSFEWL
Expt 4-2 % conv [1]: 0.5%
Expt 4-1 % conv [2]: 1.1%

B4: 41 (protein, listed as Ardenticatena maritima)
chain: MKGARMQDRVETLLQSLTLDEKIKLLAGADTWHTHAIPRLGIPALKVTDGPNGVRGTQKDTRSQTSASFPVGTAMGATWNPDLVREIGEALAEEVKTKGAHVLLGPTVNMHRHPLAGRNFECFAEDPYLMARMAVAYIQGVQSQGVGACIKHYVCNDQEFERFSISAEVDERTLREIYLPPFKAAVQEAGVWTLMTAYNRVNGVYASENSHLFDILKDEWGFDGLALSDWYGTYSDRVPLERLDLEMPGPGRWMAPEKVRAALERGEITEADIDDKVRRLLRTLERVGAFEDSAPKEERSVDNPRHHEIIRRAGREAIVLLKNEDNVLPLDASRFPRLAVIGRPATEVSFQGGGSSEVNPHYVVQPLDAMRERYGEAFQMTYALGPAFYRNFPLLDTRGLRAEDGTPGKVTVRQYDNTELEGEPSKVFLAEGTQLAWFGEQISEFDLRSFSLTMSGTWTPPVSGTYTFSMATVGRGRFEFDGKTLLDWWEYIPEEQPQNFDGMVSVPWRQEEVTLELEAGREYPFRVDFAVVPGGRWRTIRLGVLPPQPADPIGEAVALAREADAAVVFVGLTPEWESEGSDRESMDLPGEQNELVARVAEANPNTIVIVNAGSPVHMPWLDKVKAVLQVWYLGQEMGNAITDVLFGEADPGGRLPTTFPKRLQDSPAYINYPGENGRVYYGERLYVGYRYYDKKEIEPLFPFGHGLSYTTFSYDALELAADQVRVGEGVDVHVTITNQGARRGQEVVQVYLHDVESSLPRPPKELKGFAKVTLEPGETRTVTIHLRPDAFAFYDDKRGAWVVEPGAFEVLVGRSAADIRLRARLDIVDKTTEALEAGNVLAG
Expt 4-2 % conv [1]: 0.7%
Expt 4-1 % conv [2]: 4.0%

B5: 32 (protein)
chain: MSIRLTDKASVPAVVAEMTLEEKARLVTGEFPFTTAGIKRLGIPPMRPLDGHTGINMGQLRSDMASKTLANKSVDELGEMSGPAISGFGTVITNAKDPAKRAKMAPSIQKLVQEVLDKVDELMPDGMYPGCFPPGIMQGSTWNPEVIEKEGSAVGKEMDAYKVDVCLGPNVNIHRDPLNGRLFEGYSEDPYVTATLAPYYIRGMQAEGVAADAKHFAANNQETHRQEIDERIPLRALYEIYLPGFKAAVQQGKVKTLMSAYNKINGTACALNHWLLTDVLRGEWGFEGFVVSDWGAVYDQVDAINAGNDLEMPGPLTFDKIVAAVKDGRIDEKTLDQRVANYLNVLVELPVMKGRKNAHIDREYSRKAAYDVAAEGSILLKNEGALPLNEGAKISLIGEHAKDYIICGKGSAFIDTDQATNLYDCAVETLGADKVEYGDVSADSDAAIIVVSVDGQEGSDRADLLLAPGDDQMILDAAKKAHANGKKAIVILNVTGPVEMEGWLDQVDAVLCVWLPGMEGGRATLDILTGKVNPSGKLTLTFPKHYYDCPTYGNFPGDGDEVWYGEGIYVGYRYYDKKHVEPLYPFGYGLSYTTFELSDIAIDRDVMDMDKGETVNVSVKVTNTGKVAGKEVVQVYISDEVSTLSKPLKELKGFQKVALQPGESKVVTIAIGKDQLASYDPAAKAWGSEPGYYQALVGTSSRDIAGAVRFKAVGYNPFGYGVNCSIGKIMANPAVVEAMKKYIPAHLLSDESMSSELTYFPEAKLQKIWNEKFSLAFKDKSETEKQAILDAMCAEIAKIEVI
modifications: uncultured Clostridium sp.
Expt 4-2 % conv [1]: 0.6%
Expt 4-1 % conv [2]: 2.2%
